Test results from patent US20250230255A1 (BIOTHEUS, published 2025).
Where two headings read alike, the source gives them in different places.

Legend:
[1] = biological target: T1, human CD39 (recombinant protein in solution) (human, UniProt P49961 38-478, limits assumed); assay: BLI (ForteBio), method of Example 3, human CD39 in solution
T1 construct: also called soluble human CD39; soluble CD39
T1 sequence: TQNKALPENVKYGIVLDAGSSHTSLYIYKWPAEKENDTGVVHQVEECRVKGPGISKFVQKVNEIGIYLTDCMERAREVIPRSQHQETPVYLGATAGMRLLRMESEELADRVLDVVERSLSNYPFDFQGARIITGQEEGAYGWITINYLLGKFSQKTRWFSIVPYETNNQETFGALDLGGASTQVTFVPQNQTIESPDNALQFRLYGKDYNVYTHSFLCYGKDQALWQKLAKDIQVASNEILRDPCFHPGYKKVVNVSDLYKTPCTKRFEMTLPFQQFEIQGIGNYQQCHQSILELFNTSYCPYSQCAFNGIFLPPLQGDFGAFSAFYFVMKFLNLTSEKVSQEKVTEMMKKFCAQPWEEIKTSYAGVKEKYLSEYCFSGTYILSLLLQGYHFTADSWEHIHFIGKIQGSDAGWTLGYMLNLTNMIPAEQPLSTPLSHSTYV
Experimental: (§1) ForteBio affinity test was conducted according to the existing methods (Estep, P et al., High throughput solution based measurement of antibody-antigen affinity and affinity binding. MAbs, 2013.5 (2): p. 270-8). In short, the sensor is balanced offline in the analysis buffer for 30 min, and then tested online for 60 s to establish baseline. After that, the AHQ sensor is online loaded with the above-obtained purified antibody, and put into 100 nM human CD39 (SEQ ID NO: 28) for 5 min, and then transferred the sensor to PBS for dissociation for 5 min. A 1:1 binding model is used for the dynamic analysis.

[2] = biological target: PD-1 (of the Promega PD-1/PD-L1 blockade bioassay) (UniProt Q15116 25-288, limits assumed); assay: cell-based or functional assay
Sequence of PD-1 (of the Promega PD-1/PD-L1 blockade bioassay) (Q15116 25-288 limits assumed): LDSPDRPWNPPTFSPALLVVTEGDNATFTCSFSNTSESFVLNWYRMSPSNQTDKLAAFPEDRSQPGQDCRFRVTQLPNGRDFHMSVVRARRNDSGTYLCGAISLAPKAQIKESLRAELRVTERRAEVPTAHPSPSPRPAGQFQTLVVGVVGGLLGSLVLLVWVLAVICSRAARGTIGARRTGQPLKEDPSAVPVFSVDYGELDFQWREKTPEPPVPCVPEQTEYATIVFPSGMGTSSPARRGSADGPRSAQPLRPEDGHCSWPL

human PD-1 on cells = biological target: T2, human PD-1 on cells (human, UniProt Q15116 25-288); assay: flow cytometry on CHOS cells overexpressing human PD1, median fluorescence intensity PE-A
T2 construct: also called CHO-hPD1 cell
T2 sequence (Q15116 25-288 limits assumed): as above

cynomolgus PD-1 on cells = biological target: T3, cynomolgus PD-1 on cells (cynomolgus, UniProt Q15116 25-288 (human entry)); assay: flow cytometry on CHOS cells overexpressing cynomolgus PD1, median fluorescence intensity PE-A
T3 construct: also called CHO-cynoPD1 cell
T3 chain: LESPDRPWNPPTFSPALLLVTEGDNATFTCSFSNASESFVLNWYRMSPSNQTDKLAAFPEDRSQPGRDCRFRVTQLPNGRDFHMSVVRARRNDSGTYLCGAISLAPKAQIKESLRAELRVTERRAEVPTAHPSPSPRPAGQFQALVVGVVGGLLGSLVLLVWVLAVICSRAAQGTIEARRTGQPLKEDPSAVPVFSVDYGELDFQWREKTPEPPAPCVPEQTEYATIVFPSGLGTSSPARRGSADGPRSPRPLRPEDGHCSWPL

human CD39 on cells [3] = biological target: T4, human CD39 on cells (human, UniProt P49961 1-510); assay: cell-based or functional assay
T4 sequence: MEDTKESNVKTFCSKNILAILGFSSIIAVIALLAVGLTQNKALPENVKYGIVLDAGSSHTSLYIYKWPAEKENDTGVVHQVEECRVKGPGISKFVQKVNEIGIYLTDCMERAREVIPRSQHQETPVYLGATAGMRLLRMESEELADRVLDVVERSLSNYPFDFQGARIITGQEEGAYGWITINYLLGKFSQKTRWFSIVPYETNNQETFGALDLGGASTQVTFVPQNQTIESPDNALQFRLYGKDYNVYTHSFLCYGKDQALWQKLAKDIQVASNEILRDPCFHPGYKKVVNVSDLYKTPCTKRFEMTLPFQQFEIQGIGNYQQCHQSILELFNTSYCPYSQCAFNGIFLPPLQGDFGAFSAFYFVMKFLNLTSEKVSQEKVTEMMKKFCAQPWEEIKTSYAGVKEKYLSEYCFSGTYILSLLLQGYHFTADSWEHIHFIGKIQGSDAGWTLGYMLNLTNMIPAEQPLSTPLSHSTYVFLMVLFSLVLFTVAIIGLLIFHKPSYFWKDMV

human CD39 on cells [4] = biological target: T4, human CD39 on cells; assay: cell-based or functional assay; remark: listed apart in the source
[5] = biological target: T1, human CD39 (recombinant protein in …); assay: cell-based or functional assay
human CD39 on cells [6] = biological target: T4, human CD39 on cells; assay: cell-based or functional assay; remark: listed apart in the source
human CD39 on cells [7] = biological target: T4, human CD39 on cells; assay: cell-based or functional assay; remark: listed apart in the source
[8] = biological target: T1, human CD39 (recombinant protein in …); assay: cell-based or functional assay; remark: listed apart in the source
human CD39 on cells [9] = biological target: T4, human CD39 on cells; assay: flow cytometry on CHO-hCD39 cells, MFI titration
cynomolgus CD39 on cells = biological target: T5, cynomolgus CD39 on cells (cynomolgus, UniProt P49961 6-510 (human entry)); assay: flow cytometry on CHO-cyCD39 cells, MFI titration
T5 construct: also called cyCD39; CHO-cyCD39 cells
T5 chain: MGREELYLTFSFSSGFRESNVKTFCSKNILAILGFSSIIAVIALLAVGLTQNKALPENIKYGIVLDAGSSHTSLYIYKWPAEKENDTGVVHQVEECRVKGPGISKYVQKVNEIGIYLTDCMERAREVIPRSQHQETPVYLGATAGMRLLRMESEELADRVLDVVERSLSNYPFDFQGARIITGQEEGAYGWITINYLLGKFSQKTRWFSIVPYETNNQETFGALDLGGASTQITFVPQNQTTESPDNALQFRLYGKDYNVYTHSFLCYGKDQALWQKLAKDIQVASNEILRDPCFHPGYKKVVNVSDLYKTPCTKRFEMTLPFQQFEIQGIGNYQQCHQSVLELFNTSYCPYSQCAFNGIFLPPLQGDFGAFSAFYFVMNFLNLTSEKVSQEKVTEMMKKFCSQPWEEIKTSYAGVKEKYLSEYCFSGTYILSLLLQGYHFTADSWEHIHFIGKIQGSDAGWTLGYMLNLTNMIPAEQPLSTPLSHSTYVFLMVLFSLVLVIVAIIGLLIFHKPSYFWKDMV

[10] = biological target: T1, human CD39 (recombinant protein in …); assay: BLI (ForteBio), method of Example 3, human CD39 in solution; remark: listed apart in the source
Experimental: as §1
The humanized sequences are subjected to the humanized antibody vector construction, expression and purification according to the method described in Example 2. […] The purified humanized antibodies were subjected to the affinity test at protein level according to the method described in Example 3.

[11] = biological target: T1, human CD39 (recombinant protein in …); assay: BLI (ForteBio), antibody loaded on AHQ sensor, 100 nM human CD39 in solution, 1:1 model
Experimental: as §1

B1: Bi307/308 (bispecific antibody, human IgG1, kappa, L234A L235A)
heavy: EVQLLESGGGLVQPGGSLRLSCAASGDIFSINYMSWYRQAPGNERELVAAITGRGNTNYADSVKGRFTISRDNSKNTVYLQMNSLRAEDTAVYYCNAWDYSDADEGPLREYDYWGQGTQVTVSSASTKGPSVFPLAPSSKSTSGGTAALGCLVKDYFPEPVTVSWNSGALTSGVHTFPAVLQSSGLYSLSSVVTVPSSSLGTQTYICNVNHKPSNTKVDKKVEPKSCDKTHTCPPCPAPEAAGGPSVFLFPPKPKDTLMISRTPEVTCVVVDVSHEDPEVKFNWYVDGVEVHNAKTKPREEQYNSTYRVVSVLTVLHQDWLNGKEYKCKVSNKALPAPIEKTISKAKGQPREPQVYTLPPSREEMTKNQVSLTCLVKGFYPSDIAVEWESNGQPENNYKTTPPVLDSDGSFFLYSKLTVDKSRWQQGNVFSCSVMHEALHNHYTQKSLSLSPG
light: EVQLLESGGGLVQPGGSLRLSCAVSRGTFSEYSMSWFRQAPGKEREFVTAISGFGHITHYADSVKGRFTISRDNSKNTVYLQMNSLRAEDTAVYYCAAAWQTSPRRMMQMAGSITWGQGTQVTVSSRTVAAPSVFIFPPSDEQLKSGTASVVCLLNNFYPREAKVQWKVDNALQSGNSQESVTEQDSKDSTYSLSSTLTLSKADYEKHKVYACEVTHQGLSSPVTKSFNRGEC
notes: also called bi-epitopic anti-CD39 antibody resembling IgG structure
B1 was tested, and the Kd [1] was 0.351 nM, the koff [1] was 0.000106 s⁻¹ and the kon [1] was 303000 M⁻¹ s⁻¹.

B2: anti-PD1×CD39 antibody (bispecific antibody, human IgG1, kappa)
heavy: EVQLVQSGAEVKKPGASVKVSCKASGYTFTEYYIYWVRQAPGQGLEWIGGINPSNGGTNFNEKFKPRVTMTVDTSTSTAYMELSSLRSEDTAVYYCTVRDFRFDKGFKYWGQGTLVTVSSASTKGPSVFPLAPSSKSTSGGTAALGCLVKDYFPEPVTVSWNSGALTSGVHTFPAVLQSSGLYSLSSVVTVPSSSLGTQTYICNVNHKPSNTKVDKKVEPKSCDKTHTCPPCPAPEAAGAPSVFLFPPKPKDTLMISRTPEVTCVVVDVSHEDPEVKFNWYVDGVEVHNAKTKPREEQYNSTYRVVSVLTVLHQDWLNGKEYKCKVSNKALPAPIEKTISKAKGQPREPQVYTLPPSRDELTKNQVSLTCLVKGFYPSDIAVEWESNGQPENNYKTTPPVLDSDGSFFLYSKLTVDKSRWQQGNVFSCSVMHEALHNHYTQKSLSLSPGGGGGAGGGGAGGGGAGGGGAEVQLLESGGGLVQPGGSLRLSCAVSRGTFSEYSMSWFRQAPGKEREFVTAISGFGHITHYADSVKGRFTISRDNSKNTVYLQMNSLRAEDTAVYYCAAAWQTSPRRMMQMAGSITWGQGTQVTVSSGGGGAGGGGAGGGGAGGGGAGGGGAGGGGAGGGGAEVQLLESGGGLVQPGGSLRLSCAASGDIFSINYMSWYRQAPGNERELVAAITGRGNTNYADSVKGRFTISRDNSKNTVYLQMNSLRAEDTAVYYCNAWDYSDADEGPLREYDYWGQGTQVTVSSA
light: DIVLTQSPATLSLSPGERATLSCRASKSVSTSGLNYVHWYQRKPGQAPRLLIYLGSYLDSGVPARFSGSGSGTDFTLTISSLEPEDFAVYYCQQSWELPLTFGGGTKVEIKRTVAAPSVFIFPPSDEQLKSGTASVVCLLNNFYPREAKVQWKVDNALQSGNSQESVTEQDSKDSTYSLSSTLTLSKADYEKHKVYACEVTHQGLSSPVTKSFNRGEC
notes: also called Anti-PD1xCD39 antibody
In the case of B2, the “EC50 (read off the curve)” value [2] is reported as roughly 0.3 nM, the “EC50 (read off the curve)” value (human PD-1 on cells) is reported as roughly 10 nM and the “EC50 (read off the curve)” value (cynomolgus PD-1 on cells) is reported as roughly 20 nM.

B3: anti-PD1 antibody ADI-54872 (antibody, V domains shown)
VH: EVQLVQSGAEVKKPGASVKVSCKASGYTFTEYYIYWVRQAPGQGLEWIGGINPSNGGTNFNEKFKPRVTMTVDTSTSTAYMELSSLRSEDTAVYYCTVRDFRFDKGFKYWGQGTLVTVSS
VL: DIVLTQSPATLSLSPGERATLSCRASKSVSTSGLNYVHWYQRKPGQAPRLLIYLGSYLDSGVPARFSGSGSGTDFTLTISSLEPEDFAVYYCQQSWELPLTFGGGTKVEIK
notes: also called anti-PD-1 monoclonal antibody molecule
B3 was tested, and the “EC50 (read off the curve)” value [2] was roughly 0.2 nM, the “EC50 (read off the curve)” value (human PD-1 on cells) was roughly 10 nM and the “EC50 (read off the curve)” value (cynomolgus PD-1 on cells) was roughly 10 nM.

B4: I394 BMK (antibody, human IgG1, kappa, V domains shown)
VH: EVQLQQSGPELVKPGASVKMSCKASGYTFTDYNMHWVKQSHGRTLEWIGYIVPLNGGSTFNQKFKGRATLTVNTSSRTAYMELRSLTSEDSAAYYCARGGTRFAYWGQGTLVTVSA
VL: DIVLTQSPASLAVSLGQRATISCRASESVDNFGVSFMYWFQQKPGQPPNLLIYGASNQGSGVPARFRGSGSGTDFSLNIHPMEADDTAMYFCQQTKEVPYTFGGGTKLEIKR
notes: also called control antibody
In the case of B4, the “EC50 of blocking CD39 enzyme activity in human CD39 overexpression cells (ATP, CellTiter-Glo)” value (human CD39 on cells [3]) is reported as 10.1 nM, the “EC50 of blocking CD39 enzyme activity in PBMC system” value (human CD39 on cells [4]) is reported as 10.1 nM and the “EC50 of blocking enzyme activity of soluble CD39” value [5] is reported as 3.09 nM. For the same binder, the “EC50 of blocking CD39 enzyme activity of human CD39 overexpression cells” value (human CD39 on cells [6]) was 1.99 nM, the “EC50 of blocking CD39 enzyme activity in PBMC system” value (human CD39 on cells [7]) was 0.338 nM and the “EC50 of blocking enzyme activity of soluble human CD39” value [8] was 8.89 nM. For the same binder, the EC50 (human CD39 on cells [9]) was 4.76 nM, the EC50 (cynomolgus CD39 on cells) was 5.53 nM and the Kd [10] was 1.5 nM. It also gave a koff [10] of 0.000371 s⁻¹, a kon [10] of 245000 M⁻¹ s⁻¹ and a Kd [11] of 0.855 nM. It also gave a koff [11] of 0.0002 s⁻¹ and a kon [11] of 285000 M⁻¹ s⁻¹.
